Measurements published in the supplement of paper PMC10567573.

B1: KLHL13 (parent)
chain: GVSKVGLRKIIDFIYTAKLSLNMD

Variants of: B1
Test: protein stability index of a GFP-peptide fusion (GPS, HEK-293T) (PSI 1-6); higher = more stable
Conditions: c terminus: a fixed tail appended
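Further: lentivirally expressed fusions sorted by FACS into six bins by GFP to DsRed ratio, PSI derived from sequencing read proportions per bin multiplied by bin number.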

| Variant | protein stability index |
| --- | --- |
| GVSKVGLRKIIDFIYTAKDSLNMD [L19D] | 1.36 |
| GVSKVGLRKIIDFIYTAKTSLNMD [L19T] | 2.95 |
| GVSKVGLRKIIDFIYTAKSSLNMD [L19S] | 1.63 |
| GVSKVGLRKIIDFIYTAKCSLNMD [L19C] | 2.34 |
| GVSKVGLRKIIDFIYTAKHSLNMD [L19H] | 1.87 |
| GVSKVGLRKIIDFIYTAKQSLNMD [L19Q] | 2.21 |
| GVSKVGLRKIIDFIYTAKWSLNMD [L19W] | 2.93 |
| GVSKVGLRKIIDFIYTAKVSLNMD [L19V] | 3.11 |
| GVSKVGLRKIIDFIYTAKNSLNMD [L19N] | 3.62 |
| GVSKVGLRKIIDFIYTAKLSQNMD [L21Q] | 3.01 |
| GVSKVGLRKIIDFIYTAKLSWNMD [L21W] | 1.96 |
| GVSKVGLRKIIDFIYTAKLSANMD [L21A] | 1.94 |
| GVSKVGLRKIIDFIYTAKLSENMD [L21E] | 1.53 |
| GVSKVGLRKIIDFIYTAKLSCNMD [L21C] | 2.69 |
| GVSKVGLRKIIDFIYTAKLSDNMD [L21D] | 1.8 |
| GVSKVGLRKIIDFIYTAKLSFNMD [L21F] | 2.21 |
| GVSKVGLRKIIDFIYTAKLSPNMD [L21P] | 1.86 |
| GVSKVGLRKIIDFIYTAKLSNNMD [L21N] | 1.83 |
| GVSKVGLRKIIDFIYTAKLSSNMD [L21S] | 2.72 |
| GVSKVGLRKIIDFIYTAKLSLNCD [M23C] | 2.45 |
| GVSKVGLRKIIDFIYTAKLSLNGD [M23G] | 3.36 |
| GVSKVGLRKIIDFIYTAKLSLNSD [M23S] | 1.79 |
| GVSKVGLRKIIDFIYTAKLSLNND [M23N] | 1.53 |
| GVSKVGLRKIIDFIYTAKLSLNDD [M23D] | 2.09 |

| Variant | protein stability index |
| --- | --- |
| GVSKVGLRKIIDFIYTAKLSLNAD [M23A] | 2.48 |
| GVSKVGLRKIIDFIYTAKLSLNRD [M23R] | 3.14 |
| GVSKVGLRKIIDFIYTAKLSLNQD [M23Q] | 1.55 |
| GVSKVGLRKIIDFIYTAKLSLNHD [M23H] | 3.04 |
| GVSKVGLRKIIDFIYTAKLSLNKD [M23K] | 1 |
| GVSKVGLRKIIDFIYTAQLSLNMD [K18Q] | 3.22 |
| GVSKVGLRKIIDFIYTASLSLNMD [K18S] | 3.44 |
| GVSKVGLRKIIDFIYTAWLSLNMD [K18W] | 2.7 |
| GVSKVGLRKIIDFIYTAGLSLNMD [K18G] | 2.55 |
| GVSKVGLRKIIDFIYTAMLSLNMD [K18M] | 2.52 |
| GVSKVGLRKIIDFIYTALLSLNMD [K18L] | 1.76 |
| GVSKVGLRKIIDFIYTANLSLNMD [K18N] | 2.17 |
| GVSKVGLRKIIDFIYTARLSLNMD [K18R] | 2.63 |
| GVSKVGLRKIIDFIYTACLSLNMD [K18C] | 2.46 |
| GVSKVGLRKIIDFIYTATLSLNMD [K18T] | 2.15 |
| GVSKVGLRKIIDFIYTAYLSLNMD [K18Y] | 2.88 |
| GVSKVGLRKIIDFIYTAHLSLNMD [K18H] | 2.72 |
| GVSKVGLRKIIDFIYTAPLSLNMD [K18P] | 2.89 |
| GVSKVGLRKIIDFIYIAKLSLNMD [T16I] | 2.72 |
| GVSKVGLRKIIDFIYEAKLSLNMD [T16E] | 1.95 |
| GVSKVGLRKIIDFIYPAKLSLNMD [T16P] | 2.57 |
| GVSKVGLRKIIDFIYMAKLSLNMD [T16M] | 1.95 |
| GVSKVGLRKIIDFIYGAKLSLNMD [T16G] | 2.86 |
| GVSKVGLRKIIDFIYVAKLSLNMD [T16V] | 1.81 |

| Variant | protein stability index |
| --- | --- |
| GVSKVGLRKIIDFIYWAKLSLNMD [T16W] | 1.79 |
| GVSKVGLRKIIDFIYRAKLSLNMD [T16R] | 2.69 |
| GVSKVGLRKIIDFIYYAKLSLNMD [T16Y] | 2.74 |
| GVSKVGLRKIIDFIYHAKLSLNMD [T16H] | 1.63 |
| GVSKVGLRKIIDFIYTAKLSLMMD [N22M] | 2.26 |
| GVSKVGLRKIIDFIYTAKLSLIMD [N22I] | 2.68 |
| GVSKVGLRKIIDFIYTAKLSLDMD [N22D] | 2.3 |
| GVSKVGLRKIIDFIYTAKLSLWMD [N22W] | 1.31 |
| GVSKVGLRKIIDFIYTAKLSLFMD [N22F] | 3.75 |
| GVSKVGLRKIIDFIYTAKLSLSMD [N22S] | 2.36 |
| GVSKVGLRKIIDFIYTAKLSLRMD [N22R] | 2.09 |
| GVSKVGLRKIIDFIYTAKLSLYMD [N22Y] | 1.99 |
| GVSKVGLRKIIDFIYTAKLSLAMD [N22A] | 3.65 |
| GVSKVGLRKIIDFIYTAKLSLVMD [N22V] | 1.32 |
| GVSKVGLRKIIDFIYTAKLSLEMD [N22E] | 2.73 |
| GVSKVGLRKIIDFIYTAKLSLQMD [N22Q] | 1.9 |
| GVSKVGLRKIIDFIYTAKLSLHMD [N22H] | 2.41 |
| GVSKVGLRKIIDFIYTAKLSLPMD [N22P] | 4.34 |
| GVSKVGLRKIIDFIYTAKLSLLMD [N22L] | 2.11 |
| GVSKVGLRKIIDFIYTAKLVLNMD [S20V] | 1.96 |
| GVSKVGLRKIIDFIYTAKLQLNMD [S20Q] | 1.68 |
| GVSKVGLRKIIDFIYTAKLKLNMD [S20K] | 3.46 |
| GVSKVGLRKIIDFIYTAKLILNMD [S20I] | 2.04 |
| GVSKVGLRKIIDFIYTAKLPLNMD [S20P] | 2.25 |

| Variant | protein stability index |
| --- | --- |
| GVSKVGLRKIIDFIYTAKLALNMD [S20A] | 3.46 |
| GVSKVGLRKIIDFIYTAKLWLNMD [S20W] | 1.85 |
| GVSKVGLRKIIDFIYTAKLRLNMD [S20R] | 2.11 |
| GVSKVGLRKIIDFIYTAKLLLNMD [S20L] | 2.67 |
| GVSKVGLRKIIDFIYTAKLNLNMD [S20N] | 3.26 |
| GVSKVGLRKIIDFIYTAKLHLNMD [S20H] | 2.7 |
| GVSKVGLRKIIDFIYTAKLELNMD [S20E] | 4.11 |
| GVSKVGLRKIIDFIYTGKLSLNMD [A17G] | 3.4 |
| GVSKVGLRKIIDFIYTSKLSLNMD [A17S] | 1.75 |
| GVSKVGLRKIIDFIYTRKLSLNMD [A17R] | 2.95 |
| GVSKVGLRKIIDFIYTYKLSLNMD [A17Y] | 3.45 |
| GVSKVGLRKIIDFIYTPKLSLNMD [A17P] | 2.39 |
| GVSKVGLRKIIDFIYTVKLSLNMD [A17V] | 1.56 |
| GVSKVGLRKIIDFIYTEKLSLNMD [A17E] | 1.81 |
| GVSKVGLRKIIDFIYTKKLSLNMD [A17K] | 2.73 |
| GVSKVGLRKIIDFIYTWKLSLNMD [A17W] | 3.08 |
| GVSKVGLRKIIDFITTAKLSLNMD [Y15T] | 2.52 |
| GVSKVGLRKIIDFIPTAKLSLNMD [Y15P] | 1.84 |
| GVSKVGLRKIIDFIMTAKLSLNMD [Y15M] | 2.48 |
| GVSKVGLRKIIDFIRTAKLSLNMD [Y15R] | 4.12 |
| GVSKVGLRKIIDFIQTAKLSLNMD [Y15Q] | 1.36 |
| GVSKVGLRKIIDFINTAKLSLNMD [Y15N] | 4.89 |
